This is an account of results in patent publication US20130115635A1 (VIB VZW, published 2013).

The term Kd denotes the constant that tells how readily two partners part at equilibrium. Higher therefore signals lower affinity.

Numbering of substitutions follows the chain as printed.

The target of test [1] is T1, α-synuclein (UniProt P37840 1-140). Put plainly: ITC, 298.1 K. (In general: Isothermal titration calorimetry measures the heat released or taken up as one component is titrated into another.)
Test [2] deals with T1, α-synuclein. Put plainly: ITC, 303.1 K.
The target of another test is Nb458-… (CA2944). Put plainly: affinity capture on NbSyn2 sepharose, elution with 1 M NaCl, SDS-PAGE.
The target of test [3] is T2, Nb458-gaaEPEA (CA2945).
T2 construct: also called Nb458 tagged with the gaaEPEA tag
Described as above.

For test [4], the target named is T1, α-synuclein. Briefly: ITC, 310.1 K.
Test [5] has as its target T1, α-synuclein. Briefly: ITC, 293.1 K.
The target in test [6] is T2, Nb458-gaaEPEA (CA2945). Put plainly: ELISA: Nb458-gaaEPEA coated at 0.1 or 0.01 µg/well, detected with biNbSyn2 alkaline phosphatase conjugate at dilutions 1/250 to 1/4000, OD405 after 60 minutes.
A further test concerns the target T3, β-synuclein (UniProt Q16143 1-134).
T3 construct: also called beta-synuclein
Put plainly: phage display panning on immobilised antigen.

Test [7] deals with T1, α-synuclein. Put plainly: 15N-1H HSQC NMR titration.
For test [8], the target named is T1, α-synuclein. Put plainly: phage display panning on immobilised antigen.
The target in a further test is T4, Rev-[…] (HIV).
T4 construct: also called HIV-Rev-EPEA
Put plainly: colocalisation in double-transfected HeLa cells, confocal microscopy.

T3 sequence (Q16143 whole entry): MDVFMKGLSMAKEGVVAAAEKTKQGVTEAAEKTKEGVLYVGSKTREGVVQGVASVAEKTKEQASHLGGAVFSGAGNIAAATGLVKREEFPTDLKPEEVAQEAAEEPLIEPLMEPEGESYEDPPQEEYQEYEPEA
T2 sequence (VHH, as listed by the source): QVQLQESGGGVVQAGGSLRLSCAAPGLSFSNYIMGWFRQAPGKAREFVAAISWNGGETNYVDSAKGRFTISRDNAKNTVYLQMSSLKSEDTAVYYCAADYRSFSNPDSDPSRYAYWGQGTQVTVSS

B1: NbSyn2 (VHH)
VHH: QGQLVESGGGSVQAGGSLRLSCAASGIDSSSYCMGWFRQRPGKEREGVARINGLGGVKTAYADSVKDRFTISRDNAENTVYLQMNSLKPEDTAIYYCAAKFSPGYCGGSWSNFGYWGQGTQVTVSS
notes: also called His-tagged NbSyn2; NbSyn2-His6tagged
As to B1, the Stoichiometry in the test with α-synuclein [1] came out at 0.93; with α-synuclein [2] it was 0.87; with α-synuclein [4] it was 0.91; in the test with α-synuclein [5] it was 0.99. The results for the dissociation constant (Kd) with α-synuclein [2] and with α-synuclein [4] were 99 nM and 260 nM, respectively. The binding result with Nb458-… (CA2944) and in the test with Nb458-gaaEPEA (CA2945) [3] was “binds” in each case.

B2: biNbSyn2 alkaline phosphatase conjugate (VHH)
chain: QVQLVESGGGSVQAGGSLRLSCAASGIDSSSYCMGWFRQRPGKEREGVARINGLGGVKTAYADSVKDRFTISRDNAENTVYLQMNSLKPEDTAIYYCAAKFSPGYCGGSWSNFGYWGQGTQVTVSSGGGGSGGGSQVQLQESGGGSVQAGGSLRLSCAASGIDSSSYCMGWFRQRPGKEREGVARINGLGGVKTAYADSVKDRFTISRDNAENTVYLQMNSLKPEDTAIYYCAAKFSPGYCGGSWSNFGYWGQGTQVTVSSHHHHHH
notes: also called biNbSyn2-AP; bivalent NbSyn2
As for B2, the binding result with Nb458-gaaEPEA (CA2945) [6] was “binds”.

B3: Nb87 (VHH)
VHH: QVQLQESGGGSVQTGGSLRLSCVASGYSGYMAWFRQAPGKEREGIAAIYRGDKITYYAHSVQGRFTISQANAKNTVYLLMNSLKPEDTAIYYCAARRVVADSPLLSKTYAYWGQGTQVTVSS
B3: the binding result with β-synuclein and in the test with α-synuclein [7] was “binds” in each case.

B4: NbSyn1b (VHH)
VHH: DVQLVESGGGSVQAGGSLRLSCAPSGLNASSYCMGWFRQSPGKEREGVARINGNAGIKTAYADSVKDRFTLSRDNAKNTVYLQMNSLKAEDSAMYYCAAKSSPGYCGGNWDNFGYWGQGTQVTVSS
On to B4, for which, in the test with α-synuclein [8], the binding result was “binds”.

B5: NbSyn1a-GFP (VHH)
VHH: B4 VHH with D1E, R19S, S21A, M94I, Y96F
As to B5, the binding result with Rev-[…] is on record as “binds”.

B6: NbSyn1a-mKO1 (VHH)
VHH: B4 VHH with D1E, R19S, S21A, M94I, Y96F
notes: not shown: mKO1, mKusabira orange fluorescent protein
Regarding B6, the binding result in the test with Rev-[…] is on record as “binds”.

B7: NbSyn1a (VHH)
VHH: B4 VHH with D1E, R19S, S21A, M94I, Y96F
On to B7, for which the binding result with α-synuclein [8] is “binds”.

B8: NbSyn1c (VHH)
VHH: B4 VHH with D1Q, S25L
With B8, in the test with α-synuclein [8], the binding result was “binds”.

B9: Nb85 (VHH)
VHH: QVQLQESGGGSVQAGGSLRLSCAASGLTYSNYCMGWFRQAPGKAREVVARISTRGIKTYYADSVNGRFTISRDNAKNMVYLQMNSLKPEDTAIYYCAAVIYPGYGDSCPWTTSVNYWGQGTQVTVSS
notes: also called NbSyn85
In the case of B9, the binding result with β-synuclein is listed as “binds”.

B10: Nb86 (VHH)
VHH: QVQLQESGGGSVQAGGSLRLSCALSGYTFRGNRMAWFRQAPGKEREGVARINTGGVNTYVADSVKGRFTISQDNAKNTVYLQMNNLQPEDTAMYFCAADLTGWRPVGFSGYNYWGQGTQVTVSS
With B10, the binding result with β-synuclein is reported as “binds”.
